Among the data in the supplement of paper PMC10724198 are protein stability index values, retold here.

± gives the standard deviation of the averaged measurements.

The data set concerns Saccharomyces cerevisiae. The data set is described as follows: protein stability index of tFT-peptide fusion (C-terminal peptide) (PSI (0-1 scale)); higher = more stable (slower turnover). Particulars: temperature: 30 C. The protocol:
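MPS profiling in S. cerevisiae of the yeast C-terminome library: the last 12 aa of each annotated ORF are fused to the C-terminus of a sfGFP-mCherry timer, after a GGGS linker. Cells are FACS-sorted into 8 mCherry/sfGFP bins and deep-sequenced. PSI runs from 0 (unstable) to 1 (stable); wild type and das1Δ backgrounds, two technical replicates each.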

The mark [1] stands for this setting: genetic background: das1 deletion.

Consider RQFKEILTVKEE [RRP40 C-terminal 12 aa], for which the protein stability index under setting [1] came to 0.6732 ± 0.0037 and the protein stability index (genetic background: wild type) turned out to be 0.687 ± 0.013.

For RQNDKGAIKKSK [YEA4 C-terminal 12 aa], the protein stability index turned out to be 0.676 ± 0.019 under setting [1] and 0.719 ± 0.049 (genetic background: wild type).

On to RRAAESGKLKME [YNL108C C-terminal 12 aa], for which the protein stability index by setting is: under setting [1], 0.693 ± 0.029; (genetic background: wild type) 0.698 ± 0.067.

For the sequence RRDYWLSKGQAL [TRF5 C-terminal 12 aa], the protein stability index amounted to 0.7173 ± 0.0032 under setting [1] and 0.725 ± 0.032 (genetic background: wild type).

As for RREATRISDLLK [FMS1 C-terminal 12 aa], the protein stability index is 0.695 ± 0.014 under setting [1] and 0.703 ± 0.06 (genetic background: wild type).

In the case of RRRASKNAFRGM [ENP2 C-terminal 12 aa], the protein stability index runs as follows: under setting [1], 0.696 ± 0.02; (genetic background: wild type) 0.692 ± 0.014.

RSRKWKRRLFHL [PEX32 C-terminal 12 aa]: the protein stability index was 0.825 ± 0.038 under setting [1] and 0.6 ± 0.12 (genetic background: wild type).

RSRSINGDWRKD [PAN5 C-terminal 12 aa]: the protein stability index turned out to be 0.6835 ± 0.0046 under setting [1] and 0.6967 ± 0.0028 (genetic background: wild type).

As for RSTFLMHGRLAT [MAK3 C-terminal 12 aa], the protein stability index is, setting by setting: under setting [1], 0.707 ± 0.02; (genetic background: wild type) 0.702 ± 0.019.

RVAVIEDDEDED [LEO1 C-terminal 12 aa]: the protein stability index was found to be 0.688 ± 0.0068 under setting [1] and 0.692 ± 0.021 (genetic background: wild type).

Regarding RVGQTNSPSDSQ [DFM1 C-terminal 12 aa], the protein stability index was determined as 0.706 ± 0.0087 under setting [1] and 0.695 ± 0.049 (genetic background: wild type).

Regarding RVKILHRDDTKK [UPF3 C-terminal 12 aa], the protein stability index by setting is: under setting [1], 0.707 ± 0.024; (genetic background: wild type) 0.732 ± 0.093.

On to RWHIQRITSPLS [STP22 C-terminal 12 aa], for which the protein stability index by setting is: under setting [1], 0.74 ± 0.048; (genetic background: wild type) 0.719 ± 0.028.

For RYKILDLIISKL [UTP6 C-terminal 12 aa], the protein stability index is, setting by setting: under setting [1], 0.789 ± 0.042; (genetic background: wild type) 0.683 ± 0.04.

In the case of RYVIFQSCGLIL [MRX8 C-terminal 12 aa], the protein stability index turned out to be 0.657 ± 0.031 under setting [1] and 0.683 ± 0.012 (genetic background: wild type).

Regarding SAQDSDIDLQDA [MCM7 C-terminal 12 aa], the protein stability index amounted to 0.695 ± 0.0088 under setting [1] and 0.682 ± 0.031 (genetic background: wild type).

With SASSTPSSTTMS [SPT20 C-terminal 12 aa], the protein stability index reads like this: under setting [1], 0.682 ± 0.0019; (genetic background: wild type) 0.681 ± 0.011.

The sequence SCRTTPQVRARA [YLR279W C-terminal 12 aa] had a protein stability index under setting [1] of 0.6944 ± 0.0046 and a protein stability index (genetic background: wild type) of 0.6946 ± 0.0043.

Take SDENIQPELRGQ [ABF1 C-terminal 12 aa]: the protein stability index came to 0.675 ± 0.018 under setting [1] and 0.723 ± 0.047 (genetic background: wild type).

As for SEETKKSCCSGK [CUP1-1 C-terminal 12 aa], the protein stability index reads like this: under setting [1], 0.695 ± 0.01; (genetic background: wild type) 0.757 ± 0.048.

Turning to SEINDDFHQWAQ [DEP1 C-terminal 12 aa], the protein stability index reads like this: under setting [1], 0.727 ± 0.021; (genetic background: wild type) 0.698 ± 0.0071.

On to SEIVDISQLPPG [ILV6 C-terminal 12 aa], for which the protein stability index was determined as 0.6812 ± 0.0022 under setting [1] and 0.7033 ± 0.0062 (genetic background: wild type).

In the case of “SFDVELVGLKFV [YHL019W-A C-terminal 12 aa]”, the protein stability index reads like this: under setting [1], 0.7172 ± 0.005; (genetic background: wild type) 0.695 ± 0.029.

As to SFFCRSSSKSSK [YSC83 C-terminal 12 aa], the protein stability index runs as follows: under setting [1], 0.7232 ± 0.0053; (genetic background: wild type) 0.724 ± 0.0074.

For SGFFSSLKTMFN [PAR32 C-terminal 12 aa], the protein stability index reads like this: under setting [1], 0.719 ± 0.027; (genetic background: wild type) 0.726 ± 0.058.

Regarding SGNNLGICFYKE [NUP170 C-terminal 12 aa], the protein stability index is, setting by setting: under setting [1], 0.6733 ± 0.005; (genetic background: wild type) 0.677 ± 0.019.

Regarding SHYHMWPIKRII [YMR082C C-terminal 12 aa], the protein stability index reads like this: under setting [1], 0.6853 ± 0.0064; (genetic background: wild type) 0.567 ± 0.011.

Take SIDELETEISTW [BCP1 C-terminal 12 aa]: the protein stability index was 0.718 ± 0.015 under setting [1] and 0.6932 ± 0.0068 (genetic background: wild type).

For the sequence SKEFVGSVYLNF [TRL1 C-terminal 12 aa], the protein stability index under setting [1] is 0.679 ± 0.009 and the protein stability index (genetic background: wild type) is 0.678 ± 0.03.

Consider SKILFLCQINIS [YNR042W C-terminal 12 aa], for which the protein stability index was 0.312 ± 0.03 under setting [1] and 0.313 ± 0.015 (genetic background: wild type).

As to SKIPSSLYIYHM [YGL042C C-terminal 12 aa], the protein stability index under setting [1] worked out at 0.7073 ± 0.0067 and the protein stability index (genetic background: wild type) came to 0.619 ± 0.04.

The sequence SKLNAVHTANEK [SEC8 C-terminal 12 aa] registered a protein stability index under setting [1] of 0.712 ± 0.016 and a protein stability index (genetic background: wild type) of 0.686 ± 0.022.

On to SLENVAMLVYKK [TRM13 C-terminal 12 aa], for which the protein stability index is 0.698 ± 0.048 under setting [1] and 0.66 ± 0.026 (genetic background: wild type).

Regarding SLKPSEKKLYYL [NTH2 C-terminal 12 aa], the protein stability index is 0.721 ± 0.0073 under setting [1] and 0.663 ± 0.02 (genetic background: wild type).

As to SLLGIQKSVRNL [MDM20 C-terminal 12 aa], the protein stability index was 0.691 ± 0.056 under setting [1] and 0.6654 ± 0.006 (genetic background: wild type).

In the case of SLNQPELINFKS [IZH4 C-terminal 12 aa], the protein stability index under setting [1] was found to be 0.714 ± 0.017 and the protein stability index (genetic background: wild type) amounted to 0.71 ± 0.046.

For SLQKIDATYIRG [SDS22 C-terminal 12 aa], the protein stability index came out at 0.702 ± 0.017 under setting [1] and 0.687 ± 0.017 (genetic background: wild type).

In the case of SLSSLSNQRCTT [YCR023C C-terminal 12 aa], the protein stability index runs as follows: under setting [1], 0.709 ± 0.011; (genetic background: wild type) 0.68 ± 0.052.

SMGNYYKSFFSM [OMA1 C-terminal 12 aa] yielded a protein stability index under setting [1] of 0.704 ± 0.02 and a protein stability index (genetic background: wild type) of 0.6294 ± 0.0025.

Consider SNHECSQINLLE [YCL021W C-terminal 12 aa], for which the protein stability index turned out to be 0.695 ± 0.018 under setting [1] and 0.688 ± 0.017 (genetic background: wild type).

For SPTRKRPPPRLS [INN1 C-terminal 12 aa], the protein stability index by setting is: under setting [1], 0.726 ± 0.0049; (genetic background: wild type) 0.722 ± 0.0076.

Sequence SQDDSILSSDPF [NIS1 C-terminal 12 aa] had a protein stability index under setting [1] of 0.715 ± 0.015 and a protein stability index (genetic background: wild type) of 0.666 ± 0.014.

Take SQFVNDPFWANI [HIS2 C-terminal 12 aa]: the protein stability index by setting is: under setting [1], 0.757 ± 0.031; (genetic background: wild type) 0.756 ± 0.04.

Consider SQIRTPLVMLLM [YOR318C C-terminal 12 aa], for which the protein stability index stood at 0.651 ± 0.025 under setting [1] and 0.454 ± 0.0056 (genetic background: wild type).

SQPDYKYLFDTQ [YRM1 C-terminal 12 aa]: the protein stability index is 0.71 ± 0.027 under setting [1] and 0.623 ± 0.025 (genetic background: wild type).

With SRIIIKAARGII [YOR082C C-terminal 12 aa], the protein stability index reads like this: under setting [1], 0.704 ± 0.042; (genetic background: wild type) 0.678 ± 0.019.

SRRFYRKIDHLA [YLR400W C-terminal 12 aa]: the protein stability index amounted to 0.699 ± 0.02 under setting [1] and 0.507 ± 0.018 (genetic background: wild type).

Take SRVVLSQGDSDD [TOF1 C-terminal 12 aa]: the protein stability index worked out at 0.68424 ± 0.00057 under setting [1] and 0.662 ± 0.026 (genetic background: wild type).

For SSSSLYTESPIR [IGO1 C-terminal 12 aa], the protein stability index is, setting by setting: under setting [1], 0.7011 ± 0.0054; (genetic background: wild type) 0.717 ± 0.066.

Consider SSVVSIPLREIL [YNR048W C-terminal 12 aa], for which the protein stability index was found to be 0.712 ± 0.016 under setting [1] and 0.711 ± 0.07 (genetic background: wild type).
